Results published in patent EP1922329B1.

Molecular target: human rhinovirus serotype HRV-39
Assay: cell-based or functional assay

Substance	IC50, CPE assay [µg/mL]	fold lower IC50 than soluble ICAM-1, CPE assay [fold]
IC1-5D/IgA (ICAM/IgA fusion, gift of Dr. Tim Springer; Martin, et al., 1993) (Fc fusion)	0.12	11.3
soluble ICAM-1 (from UniProt P05362 28-480) (receptor)	1.35	–
